Target: the molecule itself
Test: native gel or EMSA; HepG2.2.15 cells treated with PAC5 (10 μmol/L) for the indicated time; cell lysates on native PAGE, hnRNPA2B1-dimerization assay by immunoblot

B1: heterogeneous nuclear ribonucleoprotein A2B1 (natural protein, UniProt P22626 1-353, looked up)
chain: MEKTLETVPLERKKREKEQFRKLFIGGLSFETTEESLRNYYEQWGKLTDCVVMRDPASKRSRGFGFVTFSSMAEVDAAMAARPHSIDGRVVEPKRAVAREESGKPGAHVTVKKLFVGGIKEDTEEHHLRDYFEEYGKIDTIEIITDRQSGKKRGFGFVTFDDHDPVDKIVLQKYHTINGHNAEVRKALSRQEMQEVQSSRSGRGGNFGFGDSRGGGGNFGPGPGSNFRGGSDGYGSGRGFGDGYNGYGGGPGGGNFGGSPGYGGGRGGYGGGGPGYGNQGGGYGGGYDNYGGGNYGSGNYNDFGNYNQQPSNYGPMKSGNFGGSRNMGGPYGGGNYGPGGSGGSGGYGGRSRY
notes: heterogeneous nuclear ribonucleoprotein A2B1, endogenous in human hepatoma cell lines, precipitated and detected with anti-hnRNPA2B1 (Santa Cruz sc-32316); Endogenous protein; also called hnRNPA2B1; source: endogenous, HepG2.2.15, HepAD38 and HepG2 cell lysates
stoichiometry N: 2

— article PMC9871967, “A hnRNPA2B1 agonist effectively inhibits HBV and SARS-CoV-2 omicron in vivo” (Protein & Cell, 2022)
